Measurements published in paper PMC11004252, “Cooperative interaction of interferon regulatory factor -1 and bromodomain—containing protein 4 on RNA polymerase activation for intrinsic innate immunity” (Frontiers in Immunology, 2024).

Molecular target: T1, Bromodomain containing protein 4 (BRD4) (human (endogenous in hSAECs), UniProt O60885 1-1362)
T1 construct: BRD4, endogenous in hSAECs; detected in situ with rabbit BRD4 Ab (Cell Signaling 13440); also called BRD4 CRC; source: endogenous, hSAECs (fixed cells, mock or RSV infected)
Assay: proximity ligation; Duolink in situ PLA, mouse anti-IRF1 and rabbit anti-BRD4 Abs, fixed hSAECs, RSV infected (MOI 1, 24 h), with solvent (DMSO) or BRD4i ZL0454 (complex unaffected by BRD4i)
Conditions: partners not purified

B1: interferon regulatory factor 1 (IRF1) (natural protein, human (endogenous in hSAECs), UniProt P10914 1-325, looked up)
chain: MPITRMRMRPWLEMQINSNQIPGLIWINKEEMIFQIPWKHAAKHGWDINKDACLFRSWAIHTGRYKAGEKEPDPKTWKANFRCAMNSLPDIEEVKDQSRNKGSSAVRVYRMLPPLTKNQRKERKSKSSRDAKSKAKRKSCGDSSPDTFSDGLSSSTLPDDHSSYTVPGYMQDLEVEQALTPALSPCAVSSTLPDWHIPVEVVPDSTSDLYNFQVSPMPSTSEATTDEDEEGKLPEDIMKLLEQSEWQPTNVDGKGYLLNEPGVQPTSVYGDFSCKEEPEIDSPGGDIGLSLQRVFTDLKNMDATWLDSLLTPVRLPSIQAIPCAP
notes: IRF1, endogenous in telomerase-immortalized human small airway epithelial cells (hSAECs); detected in situ with mouse IRF1 Ab (R&D MAB4830-SO); source: endogenous, hSAECs (fixed cells, mock or RSV infected)
B1 was tested, and the “fold increase of PLA complex, RSV against mock” value was 25 fold.
